Assay results from patent US20130102494A1 (PIERRE FABRE MEDICAMENT, published 2013).
Blank lines part the entries; values can stand above or below the binder they belong to.

Target: T1, dimeric cMet-Fc recombinant protein (rh cMet-Fc, R&D Systems ref. 358-MT/CF) (human, UniProt P08581 25-932)
T1 construct: extracellular domain; Bought reagent; also called cMet extracellular domain fusion protein; recombinant human cMet protein; not shown: Fc part
Assay: ELISA on coated dimeric cMet-Fc
Experimental: Obtained hybridomas were initially screened by ELISA on the dimeric cMet-Fc recombinant protein. Briefly, the recombinant human cMet protein was coated overnight at 4° C. to Immulon II 96-well plates and, after a 1 h blocking step with a 0.5% gelatine solution, pure hybridoma supernatant was added for an additional 1 h at 37° C. Then plates were washed and a goat anti-mouse (Jackson) specific IgG HRP was added for 1 h at 37° C. Reaction development was performed using the TMB substrate solution. Then a second screen was performed by FACS analysis on […] cell line, that express moderate to high levels of cMet, to be sure that the produced antibodies will be able to also recognize the native receptor on tumor cells. For that purpose 2×10⁵ cells were incubated with either 10 μg/ml of m205A5, m227D3 or m10D₉ (IgG1 isotype control Mab) for 20 min at 4° C. After 3 washing in phosphate-buffered saline (PBS) supplemented with 1% BSA and 0.01% NaN₃, cells were incubated with secondary antibody Goat anti-mouse Alexa 488 (dilution 1/500) for 20 minutes at 4° C. After 3 additional washings in PBS supplemented with 1% BSA and 0.1% NaN₃, cells were analyzed by FACS (Facscalibur, Becton-Dickinson). At least 5000 cells were assessed to calculate the mean value of fluorescence intensity.

T1 sequence (P08581 25-932): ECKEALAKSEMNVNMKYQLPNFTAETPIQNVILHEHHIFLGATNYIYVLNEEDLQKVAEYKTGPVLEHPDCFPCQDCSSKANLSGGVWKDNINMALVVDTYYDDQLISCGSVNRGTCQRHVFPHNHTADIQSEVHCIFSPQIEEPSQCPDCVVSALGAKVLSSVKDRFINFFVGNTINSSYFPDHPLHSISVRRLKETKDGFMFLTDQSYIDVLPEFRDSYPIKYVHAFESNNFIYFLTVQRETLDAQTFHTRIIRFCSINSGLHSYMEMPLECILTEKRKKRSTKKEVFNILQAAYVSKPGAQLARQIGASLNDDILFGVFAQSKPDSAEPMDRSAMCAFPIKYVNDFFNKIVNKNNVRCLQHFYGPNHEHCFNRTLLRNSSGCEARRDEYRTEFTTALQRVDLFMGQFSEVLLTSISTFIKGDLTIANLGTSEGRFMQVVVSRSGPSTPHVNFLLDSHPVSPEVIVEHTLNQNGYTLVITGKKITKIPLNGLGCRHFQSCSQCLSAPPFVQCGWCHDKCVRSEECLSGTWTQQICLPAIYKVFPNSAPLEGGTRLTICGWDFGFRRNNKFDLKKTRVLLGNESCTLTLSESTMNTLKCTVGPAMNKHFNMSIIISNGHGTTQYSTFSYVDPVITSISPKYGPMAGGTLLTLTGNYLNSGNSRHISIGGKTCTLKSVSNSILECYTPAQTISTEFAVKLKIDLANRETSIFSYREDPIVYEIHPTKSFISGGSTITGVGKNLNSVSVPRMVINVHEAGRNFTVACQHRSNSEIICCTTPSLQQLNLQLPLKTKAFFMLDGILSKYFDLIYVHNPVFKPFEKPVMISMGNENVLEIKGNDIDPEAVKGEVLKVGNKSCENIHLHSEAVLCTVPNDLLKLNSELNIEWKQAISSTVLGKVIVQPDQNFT

binding result: binds
B1: 205A5 monoclonal antibody (murine, secreted by hybridoma CNCM I-4246) (antibody, V domains shown)
VH: QVQLKQSGPGLVQPSQSLSITCTVSGFSLTDYGIQWVRQSPGQGLEWLGVIWRGGSTDYNAPFMSRLSITKDNSKSQVFFRMNSLQADDTAIYYCATSYYRYDGPFTYWGQGTLVTVSA
VL: NIVLTQSPASLAVSLGQRATISCRASESVDSNGNSFIHWYQQKPGQPPKLLIYVASKLESGVPARFSGSGSRTDFTLTIDPVEAEDVATYYCQQNNEYPLTFGAGTKLELK
notes: Whole murine monoclonal antibody from hybridoma; mouse IgG1 isotype controls were used beside it; also called m205A5; 205A5 Mab

binding result: binds
B2: 227D3 monoclonal antibody (murine, secreted by hybridoma CNCM I-4247) (antibody, V domains shown)
VH: EVKLVESGGDLVKPGGSLQLSCAASGFTFSSYAMSWVRQTPEMRLEWVASIMGGGTTYYPDSVKGRFTISRDIARNILNLQMSSLRSEDTAIYYCARGRDYGIRSYAMDYWGQGTSVTVSS
VL: DIVMTQAAFSNPVTLGTSVSISCRSSKSLLHSNGITYLYWYLQKPGQSPQLLIYQMSNLASGVPDRFSSSGSGTDFTLRISRVEAEDVGVYYCAQNLELPYTFGGGTKLEIK
notes: Whole murine monoclonal antibody from hybridoma; mouse IgG1 isotype controls were used beside it; also called m227D3; 227D3 Mab
